Assay results published in the DeepSol protein solubility set.

Test: soluble on expression in E. coli; label from the status in PepcDB or PDB records

Sequence	soluble on expression in E. coli
MSSKPKYVQDQEMIPGVYWVGIVDWMVRIFHGYHTDEGSSYNSYFIDDECPTVIDSVKYPFAEEWLSRIAACCPLDKIKYVVMNHAEGDHASSLKDHYHKFTNATFVCTKKCQEHLKILYGMEKATWLIVDDKYTLKIGKRTLKFIPVPLLHWPDSTFTYCPEDKILFSNDGFGQHYATSRRWADECDVSHVMHLFKEYTANILGLFSAQMRKALEVASTVEIKYILSAHGVSWRGDAMGLAIAEYDRWSKGQHCQKKVTVVLDSMYGTTHRMALALLDGARSTGCETVLLEMTSSDITKVALHTYDSGAVAFASPTLNNTMMPSVAAALNYVRGLTLIKGKPAFAFGAFGWSNRAVPDIVAELRDGCKADVYDEKGITFKFNYTEELLEQAYNAGVDLGKRAIAYCEKNAPKQ	soluble
MSDLENKKAEEAPKKRPYNLREKKEKKAAYRSLIRPELADELYDKILNIVVVQKKYKDPDYSAKDLAKELKTNTRYLSAVVNSRFGMNYSCLLNEYRVKDALHLLTDKRYADKNVEEISAMVGFANRQSFYAAFYKNVGETPNGYRKKHAESKK	not soluble
MFRRLILRQAAAVAAESKIACHHTVHGFEQRRGLHSRNEKAMEYVAKGWSAIKEVERVIDYCELNDRRLIPLLRGAKENFELALEADNLNTHARYWLSKLHLKYHVPGACKAVGAALLVEAADMGNADAQYELGCRLRVENDHVQSDQQAFHYIENAVDQLHPGALYLLGIVYLTGDCVKQDVDSAIWCFHRASEKGHAGAAIAYGSLLLRGVQVPESLTKLNVVGVSPPKRARKNLENPEMNPLEMAKEQFQIAARAGCDLGLKWLQRVEQEEKLLMREQDNECAYV	not soluble
MNEETHNKKWQITHRKIQEIVFHLLKEHPIKEISVSQVCKKANINRSTFYDHFEDIYELFDVTQLNKRKELFESFIKQSNPRDKFNFYDLQSLTQFLTFIKENGWIYSIVLKSRQDFPITEGFEELYKVLINPLKKKRPELTDNELAYYFIAFQSSFTFILKRWSDNDYQEKEKEIAAILINSMPLILKNK	soluble
MKVTKSEIVISAVKPEQYPEGGLPEIALAGRSNVGKSSFINSLINRKNLARTSSKPGKTQTLNFYIINDELHFVDVPGYGFAKVSKSEREAWGRMIETYITTREELKAVVQIVDLRHAPSNDDVQMYEFLKYYGIPVIVIATKADKIPKGKWDKHAKVVRQTLNIDPEDELILFSSETKKGKDEAWGAIKKMINR	soluble
MAHHHHHHMCVPFKDQGQWIRQVALQVEEVAPSERGTDRPAAATPRHHMSVGVVDYYSKCGRICETVAVLCEEWMDSGYMDGFSSRLVKEANAGRSISDAPHRDAVFDSFCAPSPHCKKHAIFVRELDLALTTDTELRASIDADRPQEIETEEREMETMLHRLTREQGQSADVFSRDEIRRMKEAFVTGNKEDLQAVDPTAFDLTDDEFSTLKDYMHGEERKQQQQQRQRRPSAPSDADDL	not soluble
MGSDKIHHHHHHVIALLKAYKFRLYPTKPQQEYFVKTFGCVRFVYNKMLEERIQLYEDSKLNPDAKQKLPTPAKYKPEFPFLKEVDSLSLANAQMDLNQAYQNFFRDQSVGFPKFKSKHNDRASYTTNNLKGSIRIEDRKVKLPKIGFVKLKQHRPFDGVIKSATVSMTKTRKFFISILVDQAEAQWVPAQNKVGIDLGLEHFAILTNDEWVSEKVANPRFLRKSEEKIKKAQRALSRKKIGSKNREKARIILAKKHEKIAHQRQDFLHKLSKRMVDDNQVIVVETLKSKNMMKNHKIAKSIGDVSWYGFVRQLEYKCAFYGRTLIKADQWYASTQICSSCGVKGEKKTIDVREWMCTCGAHHDRDINASINLLLLAD	not soluble
MVVKSLVYGIYPRSERLRKAYNRWERGLVGNEEIRRTISEEKDRFYEYVKSVGISEFTDPLFNWHDIFRPIALSVSGVTLGPLKRYLETNTFYREPEISGHITLQRKLDTFDLLEENPPLPLFALAKGSSIFLPTPSSFYKMSSVKANIGAEELYKDLVNVYSDIIDIFKPRSLVLYEVFPYNGDNLSYLESLNQKISVHLLTKGKISEKNFNGIKHKFESIISDDHPEFLKNYAKYYGFKIIDVNKTKVEDPNADYGIENYEDAIVTSNDYFDFLPREIADIKVEVLGKVGEAAALEHHHHHH	not soluble
MSVIRLHQYQVVGRALPTEKDEQPKIYRMKLWATNEVLAKSKFWYYLRRQKKVKKSNGQMLAINEIFEKNPTTIKNFGIWLRYQSRTGYHNMYKEYRDTTLNGAVEQMYTEMASRHRVRFPCIQIIKTATVPASLCKRESTKQFHNSKIKFPLVFRKVRPPTRKLKTTFKANKPNLFM	soluble
EQSAYRIHSAYMVGGGGSITRDTYLSPLRYGGWTLNLLGEKTFPLKASDSRWMIRTGHELDFALMDNPANNAHFYSLLYNGSAAALYRLGAKHLRAAWMDNLRLAFGPGLEIGLGGIYSTRNGNNPATLKLYTNAIAQASIGYYVPSETFPLYFRLLSQINLFGIAYGNGFGESYYENFLLNNGIAGSLHFTYPGKFTRFTTLITADIPIRNFCTLRVGYRYSHLGSSLNALDTRIHSHTAFIGFVTEFYRFRGRKAMNTGRRTSLYYHD	not soluble
TSTKLNTTTSAAYLSTGIKALDSMLGSKGYQTGSQIIISGRSGTAKTLFATSFAQSAVRQGRKVLFISFEESPNDLIRHVKSINIDLMKYITKKKLHINSRRSVEMGLEDHIISIIELTEEKQFDVLILDPISALLDLGNTMEVKRLFIRFISYMKSLNKTLLFTELIPDYSKELTILGLSSLTETWIRLSNVESNGEFNRLIHIAKARGIKTSNQIKEFYVTDKGINIEAPYLGDNQMMFGSQKSA	not soluble
MGSDKIHHHHHHMMNTSTSDPIGAAWLIRYASIELVSPLYITSSIGGRRQTYKEGNVIHNAYQETARPLDTIIAHLQFHMRHEVLNLELLVRLFEQIGADDVQAWVNAEPTGSYARRMAFLYEWLMDKELAVSSNLGGNYVDALDTKKMVTSSPEHIIKNARWRINDNLAGTRHFCPMLVKTEAFTQAAALDIATMVEKLNDEFGQDLLMRASVWMTLRESKASFTIEGEGKELKRIERFAEVMARRTGKGDIPLDPESLAELQQEILGSKTVIQQYGIRQSPVFVSHTQVNGFKEIVHYIAPPSEDIAYKLTGLQALMKKTEGQSALMRSAVASFAFVYIHPLADGNGRVHRFLINDVLRRDQVIHEPIILPISQAIAEHPSDRHAYDKILDRVSVPLMRQIRDHYRFDKQAVTYPDGIRSNLNFADSHLIQPAWRFMDLTPHVQYLSGLIAHVIEKEMHNESQYLRQHDHARLAIKEIVEMPNSYADRIIRSMLQNKGAKSNKLLQDYPFLANEAVWDDVFSVVVEIFK	not soluble
MGSDKIHHHHHHMQPTYNIDNPNLSYEAKRDLWRIGFGLQKVDNLVPSAYMESLAEKQSRGELTYEQVYEDATAYHHTIDASTEEADLVSLRIVELLSRRGFSFSPAILLAIHKELFQDIFEPSIPVGQFRQTNITKNEPVLNGESVVYSDYSMIQMTLDYDFNQEKQVAYATLTQADMVKKIQHFISGIWQIHPFREGNTRTVTVFLIQYLREFGFDIDNTPFQQHSKYFRDALVLDNAKILQRRPEFLTAFFENLLLGGQNDLSSEKMYLDLDLDLS	not soluble
MRSDVVARAMRLIADGTVDRDGVSGLAAQLGYTIRQLERLLQAVVGAGPLALARAQRMQTARVLIETTNLPFGDVAFAAGFSSIRQFNDTVRLACDGTPTALRARAAARFESATASAGTVSLRLPVRAPFAFEGVFGHLAATAVPGCEEVRDGAYRRTLRLPWGNGIVSLTPAPDHVRCLLVLDDFRDLMTATARCRRLLDLDADPEAIVEALGADPDLRAVVGKAPGQRIPRTVDEAEFAVRAVLAQQVSTKAASTHAGRLVAAYGRPVHDRHGALTHTFPSIEQLAEIDPGHLAVPKARQRTINALVASLADKSLVLDAGCDWQRARGQLLALPGVGPWTAEVIAMRGLGDPDAFPASDLGLRLAAKKLGLPAQRRALTVHSARWRPWRSYATQHLWTTLEHPVNQWPPQEKIALEHHHHHH	not soluble
MKLLEVHILQTVAPSNLNRDDTGSPKDALFGGFRRARISSQAQKRAVRVAFRDWPLLSEEERAVRTKRLVEELLRRLAGVEEELARRAIENALNALGFGVKEGRTEYLLFLGNRELDALAQGIRENLEALSGEVKGKKKAEVPPELKKALERVLDGGKAVDLALFGRMLADRPELGVDAAAQVAHALSTHKVDREFDFYTAVDDLNPKEDTGAGMMGDVEFYSATLYRYAVVDLDKLVENLQGDKELALKGVLAFLEAFALTLPSGKQNSFAAHNPPLFVAFRAGEGMPRNLATAFEAPLRPKEEVPLSRLSAEALLKEWAKFDRVYGPLEPEWKGALDLTGAEGDGVPRLENLKALKEKAAEAVKALLGV	soluble
MWRRSLTESHSNELRLELTSRIVSAYLSRNVIAPSELPHLIQQTYGSLGKTSEPTKTPATVEEQRPAVPIKKSVTDDFIVCLEDGKSFKSLKRHLMAKYALTPEQYREKWKLPADYPMVAPNYARKRSELARATGLGKKSAANLSPSLQAVRSA	not soluble
MRGSHHHHHHSNFAIILAAGKGTRMKSDLPKVLHKVAGISMLEHVFRSVGAIQPEKTVTVVGHKAELVEEVLAGQTEFVTQSEQLGTGHAVMMTEPILEGLSGHTLVIAGDTPLITGESLKNLIDFHINHKNVATILTAETDNPFGYGRIVRNDNAEVLRIVEQKDATDFEKQIKEINTGTYVFDNERLFEALKNINTNNAQGEYYITDVIGIFRETGEKVGAYTLKDFDESLGVNDRVALATAESVMRRRINHKHMVNGVSFVNPEATYIDIDVEIAPEVQIEANVILKGQTKIGAETVLTNGTYVVDSTIGAGAVITNSMIEESSVADGVTVGPYAHIRPNSSLGAQVHIGNFVEVKGSSIGENTKAGHLTYIGNCEVGSNVNFGAGTITVNYDGKNKYKTVIGDNVFVGSNSTIIAPVELGDNSLVGAGSTITKDVPADAIAIGRGRQINKDEYATRLPHHPKNQ	soluble
MERKLGISLYPEHSTKEKDMAYISAAARHGFSRIFTCLLSVNRPKEEIVAEFKEIINHAKDNNMEVILDVAPAVFDQLGISYSDLSFFAELGADGIRLDVGFDGLTEAKMTNNPYGLKIELNVSNDIAYLENILSHQANKSALIGCHNFYPQKFTGLPYDYFIRCSERFKKHGIRSAAFITSHVANIGPWDINDGLCTLEEHRNLPIEVQAKHLWATGLIDDVIIGNAYASEEELEKLGNLNRYMLQLKVHFVDEATEVEKRATLQELHVRRGDITEYMVRSTEVRKKYKDYDFPVRESVLQERGQVVIGNNSFGKYKGELQIILKEMPIDERKNIVGTIAEEELFLLDYVGAWTQFTCVE	soluble
MTATHDTIRLAEIAAKAAAEKLATNIAVIDVSDVMAISEVFVLASADNERQVRSIVEEIEDMLTAEGEEPKRREGNRENRWVLLDYGMLVIHVQRNTERDFYGLDRLYQDCPLIEVEGIDTMARPEEWAQDVDVRTVESLDEIPLAGEEPADEEF	not soluble
MRRVQSNTLDVGIDVHLKNWSTAILSKHSVLRRFLQVDCEGPTLISYIVAKHLAHASRGTISPYRTNGSAYGGFAIYMYLLIKMR	not soluble
MFARNFFKGGTKVPHFKNTAECETVKMGVPEKVVIPMLQHVGAPCEPCVKKGDTVRVGQVIGNSDKYISSPIHSSVSGTVNDVAPMLFAGGIYVTAVEIKTDGKQEIYEGIKPPSFSNSKEFISAIRESGLVGLGGAGFPAHVKLSPPPDKKIDTLIINAAECEPYITSDYREIIENSWNVVSGINIIMEILGIENVLIGIEDNKPEAIKEMTRVAATDDRINVIKLKSRYPQGAEKMLIYATTGRKVPPGKLPADVGVIVMNVNSVSFISEYIKTGMPLIKKRVTVDGPSVKRPGNVEVLIGTPISEVFSFCGGFGIVPKKILMGGPMMGIAQYTLDTPVLKHTNALLAFDETTAVLPKEQACIRCGRCVRACPMNLLPLYLNNNSIRGNIEELNRYHVMDCIECGSCAYVCPAKINLVQSIRLGKAQVRQAAAKGGN	not soluble
